Source: PMC9622684, “Characterization of an Escherichia coli-derived triple-type chimeric vaccine against human papillomavirus types 39, 68 and 70” (NPJ Vaccines, 2022)

B1: HPV39 L1 (15–505 aa), wild-type L1-only virus-like particle (domain or fragment)
chain: PPSVAKVVNTDDYVTRTGIYYYAGSSRLLTVGHPYFKVGMNGGRKQDIPKVSAYQYRVFRVTLPDPNKFSIPDASLYNPETQRLVWACVGVEVGRGQPLGVGISGHPLYNRQDDTENSPFSSTTNKDSRDNVSVDYKQTQLCIIGCVPAIGEHWGKGKACKPNNVSTGDCPPLELVNTPIEDGDMIDTGYGAMDFGALQETKSEVPLDICQSICKYPDYLQMSADVYGDSMFFCLRREQLFARHFWNRGGMVGDAIPAQLYIKGTDIRANPGSSVYCPSPSGSMVTSDSQLFNKPYWLHKAQGHNNGICWHNQLFLTVVDTTRSTNFTLSTSIESSIPSTYDPSKFKEYTRHVEEYDLQFIFQLCTVTLTTDVMSYIHTMNSSILDNWNFAVAPPPSASLVDTYRYLQSAAITCQKDAPAPEKKDPYDGLKFWNVDLREKFSLELDQFPLGRKFLLQARVRRRPTIGPRKRPAASTSSSSATKHKRKRVSK
notes: Major capsid protein L1 of human papillomavirus type 39, residues 15-505 as printed; chosen from full-length and 5-, 10-, 15-aa N-terminal truncations; Non-fusion expression, no tag; Copies: 72 pentamers (T = 7 capsid) as printed, i.e. 360 chains; also called WT HPV39; HPV39 VLP; source: E. coli ER2566 (pTO-T7), purified (SP or XS sepharose; self-assembly on removal of DTT, Superdex 200); copies: …
B2: HPV70 L1 (10–506 aa), wild-type L1-only virus-like particle (domain or fragment, human papillomavirus type 70, UniProt P50793 10-504, looked up)
chain: TVYLPPPSVAKVVNTDDYVTRTGIYYYAGSSRLLTVGHPYFKVPVNGGRKQEIPKVSAYQYRVFRVSLPDPNKFGLPDPSLYNPDTQRLVWACIGVEIGRGQPLGVGVSGHPLYNRLDDTENSHFSSAVSTQDSRDNVSVDYKQTQLCIIGCVPAMGEHWAKGKACKSTQQGDCPPLELVNTAIEDGDMIDTGYGAMDFRTLQETKSEVPLDICQSVCKYPDYLQMSADVYGDSMFFCLRKEQLFARHFWNRGGMVGDTIPSELYIKGTDIRERPGTHVYSPSPSGSMVSSDSQLFNKPYWLHKAQGHNNGICWHNQLFITVVDTTRSTNFTLSACTETAIPAVYSPTKFKEYTRHVEEYDLQFIFQLCTITLTADVMAYIHTMNPAILDNWNIGVTPPPSASLVDTYRYLQSAAIACQKDAPTPEKKDPYDDLKFWNVDLKEKFSTELDQFPLGRKFLLQVGARRRPTIGPRKRPASAKSSSSASKHKRKRVSK
notes: Major capsid protein L1 of human papillomavirus type 70, residues 10-506 as printed; chosen from full-length and 5-, 10-, 15-aa N-terminal truncations; Non-fusion expression, no tag; Copies: 72 pentamers (T = 7 capsid) as printed, i.e. 360 chains; also called WT HPV70; HPV70 VLP; source: E. coli ER2566 (pTO-T7), purified (SP or XS sepharose; self-assembly on removal of DTT, Superdex 200); copies: …

Experiments:
[1] = target: HPV68 L1 (0–505 aa), wild-type L1-only virus-like particle (human papillomavirus type 68); assay: cryo-EM structure; VLPs (~2.0 mg/mL) vitrified on Quantifoil grids; icosahedral 3D reconstruction (AUTO3DEM or cisTEM)
[2] = target: the molecule itself; assay: as above

Molecule | stoichiometry N [1] [pentamers] | stoichiometry N [2] [pentamers]
HPV68 L1 (0–505 aa), wild-type L1-only virus-like particle (natural protein) | 72 | –
B1 | – | 72
B2 | – | 72
